The source of these data is US20220177846A1.

What all share (experiment): cell-based or functional assay
For assay [1], the target named is hCav1.2 (human) (UniProt Q13936).
Assay [2] addresses hKCNQ1/minK (human) (UniProt P51787).
Assay [3] has as its target hKV11.1/hERG (human) (UniProt Q12809).
For assay [4], the target named is hNav1.5 (human) (UniProt Q14524).

hCav1.2 (human), sequence (Q13936 whole entry): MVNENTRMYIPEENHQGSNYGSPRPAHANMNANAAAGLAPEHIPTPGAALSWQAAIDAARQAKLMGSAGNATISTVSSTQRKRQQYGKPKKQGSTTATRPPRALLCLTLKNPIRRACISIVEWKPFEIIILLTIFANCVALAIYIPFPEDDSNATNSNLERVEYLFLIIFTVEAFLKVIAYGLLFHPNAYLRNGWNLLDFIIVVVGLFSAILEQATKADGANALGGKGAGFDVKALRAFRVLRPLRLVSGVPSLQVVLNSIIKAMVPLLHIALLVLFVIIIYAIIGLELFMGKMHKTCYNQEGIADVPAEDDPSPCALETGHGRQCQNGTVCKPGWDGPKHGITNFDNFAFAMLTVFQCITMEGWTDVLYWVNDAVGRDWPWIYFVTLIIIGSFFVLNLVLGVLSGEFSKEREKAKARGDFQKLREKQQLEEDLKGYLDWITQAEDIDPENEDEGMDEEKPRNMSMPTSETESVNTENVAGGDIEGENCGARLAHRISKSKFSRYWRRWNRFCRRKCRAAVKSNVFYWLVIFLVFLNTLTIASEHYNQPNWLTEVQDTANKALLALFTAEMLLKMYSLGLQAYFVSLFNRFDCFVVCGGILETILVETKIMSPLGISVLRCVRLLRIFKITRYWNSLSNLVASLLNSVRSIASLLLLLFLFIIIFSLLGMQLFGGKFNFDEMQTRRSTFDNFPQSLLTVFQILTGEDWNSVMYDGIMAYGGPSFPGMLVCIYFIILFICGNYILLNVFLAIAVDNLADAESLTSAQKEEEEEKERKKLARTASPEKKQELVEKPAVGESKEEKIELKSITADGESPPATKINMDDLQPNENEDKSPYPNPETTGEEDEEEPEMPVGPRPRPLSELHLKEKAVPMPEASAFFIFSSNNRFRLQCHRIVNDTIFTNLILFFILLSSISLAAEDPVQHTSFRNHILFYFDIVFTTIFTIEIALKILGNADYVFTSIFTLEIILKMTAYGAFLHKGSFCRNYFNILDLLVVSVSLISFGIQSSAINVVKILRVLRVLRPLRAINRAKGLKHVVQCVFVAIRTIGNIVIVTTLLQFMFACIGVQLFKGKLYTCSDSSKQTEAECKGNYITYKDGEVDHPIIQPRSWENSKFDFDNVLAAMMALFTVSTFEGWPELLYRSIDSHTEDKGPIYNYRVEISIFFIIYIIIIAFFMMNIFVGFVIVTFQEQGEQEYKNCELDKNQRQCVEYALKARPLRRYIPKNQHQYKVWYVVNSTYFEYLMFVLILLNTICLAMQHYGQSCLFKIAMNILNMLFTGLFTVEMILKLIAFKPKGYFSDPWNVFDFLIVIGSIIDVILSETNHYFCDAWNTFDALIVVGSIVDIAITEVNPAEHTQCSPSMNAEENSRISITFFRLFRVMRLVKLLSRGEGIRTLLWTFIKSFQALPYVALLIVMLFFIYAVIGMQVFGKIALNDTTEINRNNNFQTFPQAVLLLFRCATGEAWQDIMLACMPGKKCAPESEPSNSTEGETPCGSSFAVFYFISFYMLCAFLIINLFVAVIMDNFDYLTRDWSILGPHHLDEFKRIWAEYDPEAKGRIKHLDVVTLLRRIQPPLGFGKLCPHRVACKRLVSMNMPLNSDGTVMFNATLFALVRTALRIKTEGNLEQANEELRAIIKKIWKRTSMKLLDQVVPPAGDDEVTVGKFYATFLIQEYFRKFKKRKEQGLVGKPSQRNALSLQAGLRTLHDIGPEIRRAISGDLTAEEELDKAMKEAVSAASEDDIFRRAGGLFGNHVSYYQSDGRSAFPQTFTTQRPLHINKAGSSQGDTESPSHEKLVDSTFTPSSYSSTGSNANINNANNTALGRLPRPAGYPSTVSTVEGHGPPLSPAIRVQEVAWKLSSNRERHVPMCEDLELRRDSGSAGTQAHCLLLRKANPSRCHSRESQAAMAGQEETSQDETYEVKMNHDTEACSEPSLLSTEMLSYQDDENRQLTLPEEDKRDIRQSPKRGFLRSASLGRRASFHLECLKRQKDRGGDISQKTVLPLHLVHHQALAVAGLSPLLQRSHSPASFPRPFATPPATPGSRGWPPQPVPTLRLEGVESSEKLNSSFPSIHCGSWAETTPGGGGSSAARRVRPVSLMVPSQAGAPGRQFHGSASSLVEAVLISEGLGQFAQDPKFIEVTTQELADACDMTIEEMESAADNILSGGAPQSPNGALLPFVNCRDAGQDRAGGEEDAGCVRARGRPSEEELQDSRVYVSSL
hKV11.1/hERG (human), sequence (Q12809 whole entry): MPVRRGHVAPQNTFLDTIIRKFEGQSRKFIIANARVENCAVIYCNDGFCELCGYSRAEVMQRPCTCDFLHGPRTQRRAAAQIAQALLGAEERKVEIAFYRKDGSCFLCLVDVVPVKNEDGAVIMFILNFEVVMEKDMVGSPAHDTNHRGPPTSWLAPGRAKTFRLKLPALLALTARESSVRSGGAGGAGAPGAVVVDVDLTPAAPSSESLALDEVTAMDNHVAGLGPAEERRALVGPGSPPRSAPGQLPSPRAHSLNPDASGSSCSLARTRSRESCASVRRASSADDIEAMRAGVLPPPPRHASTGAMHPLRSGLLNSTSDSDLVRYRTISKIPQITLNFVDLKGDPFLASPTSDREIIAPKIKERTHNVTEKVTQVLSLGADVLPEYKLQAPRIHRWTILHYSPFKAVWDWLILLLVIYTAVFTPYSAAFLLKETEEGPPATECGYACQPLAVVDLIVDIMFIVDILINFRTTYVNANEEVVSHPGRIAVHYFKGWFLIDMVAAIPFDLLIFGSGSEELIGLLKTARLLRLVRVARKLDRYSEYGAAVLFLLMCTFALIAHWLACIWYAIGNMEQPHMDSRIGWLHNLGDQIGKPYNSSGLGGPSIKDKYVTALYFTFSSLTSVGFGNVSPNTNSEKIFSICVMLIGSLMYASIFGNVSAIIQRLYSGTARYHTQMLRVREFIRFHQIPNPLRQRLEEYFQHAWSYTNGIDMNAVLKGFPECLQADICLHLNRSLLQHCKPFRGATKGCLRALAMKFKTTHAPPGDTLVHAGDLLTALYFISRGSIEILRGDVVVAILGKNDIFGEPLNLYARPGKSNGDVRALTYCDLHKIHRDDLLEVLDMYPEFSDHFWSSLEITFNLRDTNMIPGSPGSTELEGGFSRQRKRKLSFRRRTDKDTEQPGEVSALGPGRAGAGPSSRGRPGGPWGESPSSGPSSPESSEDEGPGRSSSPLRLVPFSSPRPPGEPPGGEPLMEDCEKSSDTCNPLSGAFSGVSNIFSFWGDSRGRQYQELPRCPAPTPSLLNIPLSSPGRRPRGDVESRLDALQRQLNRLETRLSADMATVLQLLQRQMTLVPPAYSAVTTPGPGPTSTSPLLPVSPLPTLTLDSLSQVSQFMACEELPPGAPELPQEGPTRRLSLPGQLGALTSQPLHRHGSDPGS

Consider “Hi1a (recombinant, with non-native N-terminal serine) (peptide)”, for which, in assay [1], the % inhibition of hCav1.2 current, mean, 1 µM Hi1a was found to be 8.98%; the % inhibition of hCav1.2 current, n1, 1 µM Hi1a was 2.79%; the % inhibition of hCav1.2 current, n2, 1 µM Hi1a amounted to 13.2%; the % inhibition of hCav1.2 current, n3, 1 µM Hi1a worked out at 10.9%. In assay [2], the % inhibition of hKCNQ1/mink current, mean, 1 µM Hi1a turned out to be 0.17%; the % inhibition of hKCNQ1/mink current, n1, 1 µM Hi1a stood at 1.87%; the % inhibition of hKCNQ1/mink current, n2, 1 µM Hi1a is -0.67%; the % inhibition of hKCNQ1/mink current, n3, 1 µM Hi1a is -0.68%. For the same substance, in assay [3], the % inhibition of hERG current, mean, 1 µM Hi1a is -6.2%; the % inhibition of hERG current, n1, 1 µM Hi1a was -7.5%; the % inhibition of hERG current, n2, 1 µM Hi1a is 1.58%; the % inhibition of hERG current, n3, 1 µM Hi1a was -12.7%. Moreover, in assay [4], the % inhibition of hNav1.5 current, mean, 1 µM Hi1a stood at 8.46%; the % inhibition of hNav1.5 current, n1, 1 µM Hi1a stood at 7.31%; the % inhibition of hNav1.5 current, n2, 1 µM Hi1a is 11%; the % inhibition of hNav1.5 current, n3, 1 µM Hi1a came out at 7.1%. Also, in assay [4], the % inhibition, hNav1.5 Late current antagonist assay, mean, 1 µM Hi1a was -12.4%; the % inhibition, hNav1.5 Late current antagonist assay, n1, 1 µM Hi1a is -9.74%; the % inhibition, hNav1.5 Late current antagonist assay, n2, 1 µM Hi1a is -13.9%; the % inhibition, hNav1.5 Late current antagonist assay, n3, 1 µM Hi1a is -13.4%.
